In patent US20230235013A1 (MABSOLVE, published 2023):

B1: anti-CD20 human IgG1 L234T/L235A/G236R (antibody)
heavy: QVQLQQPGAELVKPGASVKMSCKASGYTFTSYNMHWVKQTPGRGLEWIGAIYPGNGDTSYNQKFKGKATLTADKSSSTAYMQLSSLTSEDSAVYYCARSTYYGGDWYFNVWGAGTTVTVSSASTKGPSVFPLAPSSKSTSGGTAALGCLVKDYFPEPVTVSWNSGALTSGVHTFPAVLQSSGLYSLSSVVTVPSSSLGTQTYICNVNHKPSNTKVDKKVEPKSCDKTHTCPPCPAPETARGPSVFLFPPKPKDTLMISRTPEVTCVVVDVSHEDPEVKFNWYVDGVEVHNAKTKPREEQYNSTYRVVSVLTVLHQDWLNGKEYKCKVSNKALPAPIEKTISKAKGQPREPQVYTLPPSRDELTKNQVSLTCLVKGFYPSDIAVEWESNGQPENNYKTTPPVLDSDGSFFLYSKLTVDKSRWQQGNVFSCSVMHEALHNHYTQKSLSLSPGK
light: QIVLSQSPAILSASPGEKVTMTCRASSSVSYIHWFQQKPGSSPKPWIYATSNLASGVPVRFSGSGSGTSYSLTISRVEAEDAATYYCQQWTSNPPTFGGGTKLEIKRTVAAPSVFIFPPSDEQLKSGTASVVCLLNNFYPREAKVQWKVDNALQSGNSQESVTEQDSKDSTYSLSSTLTLSKADYEKHKVYACEVTHQGLSSPVTKSFNRGEC
notes: also called 1-152; 2-54; copies: 2 + 2
B2: anti-CD20 human IgG1 L234T/L235E/G236R (antibody)
heavy: QVQLQQPGAELVKPGASVKMSCKASGYTFTSYNMHWVKQTPGRGLEWIGAIYPGNGDTSYNQKFKGKATLTADKSSSTAYMQLSSLTSEDSAVYYCARSTYYGGDWYFNVWGAGTTVTVSSASTKGPSVFPLAPSSKSTSGGTAALGCLVKDYFPEPVTVSWNSGALTSGVHTFPAVLQSSGLYSLSSVVTVPSSSLGTQTYICNVNHKPSNTKVDKKVEPKSCDKTHTCPPCPAPETERGPSVFLFPPKPKDTLMISRTPEVTCVVVDVSHEDPEVKFNWYVDGVEVHNAKTKPREEQYNSTYRVVSVLTVLHQDWLNGKEYKCKVSNKALPAPIEKTISKAKGQPREPQVYTLPPSRDELTKNQVSLTCLVKGFYPSDIAVEWESNGQPENNYKTTPPVLDSDGSFFLYSKLTVDKSRWQQGNVFSCSVMHEALHNHYTQKSLSLSPGK
light: QIVLSQSPAILSASPGEKVTMTCRASSSVSYIHWFQQKPGSSPKPWIYATSNLASGVPVRFSGSGSGTSYSLTISRVEAEDAATYYCQQWTSNPPTFGGGTKLEIKRTVAAPSVFIFPPSDEQLKSGTASVVCLLNNFYPREAKVQWKVDNALQSGNSQESVTEQDSKDSTYSLSSTLTLSKADYEKHKVYACEVTHQGLSSPVTKSFNRGEC
notes: copies: 2 + 2
B3: anti-CD20 human IgG1 L234T/L235G/G236R (antibody)
heavy: QVQLQQPGAELVKPGASVKMSCKASGYTFTSYNMHWVKQTPGRGLEWIGAIYPGNGDTSYNQKFKGKATLTADKSSSTAYMQLSSLTSEDSAVYYCARSTYYGGDWYFNVWGAGTTVTVSSASTKGPSVFPLAPSSKSTSGGTAALGCLVKDYFPEPVTVSWNSGALTSGVHTFPAVLQSSGLYSLSSVVTVPSSSLGTQTYICNVNHKPSNTKVDKKVEPKSCDKTHTCPPCPAPETGRGPSVFLFPPKPKDTLMISRTPEVTCVVVDVSHEDPEVKFNWYVDGVEVHNAKTKPREEQYNSTYRVVSVLTVLHQDWLNGKEYKCKVSNKALPAPIEKTISKAKGQPREPQVYTLPPSRDELTKNQVSLTCLVKGFYPSDIAVEWESNGQPENNYKTTPPVLDSDGSFFLYSKLTVDKSRWQQGNVFSCSVMHEALHNHYTQKSLSLSPGK
light: QIVLSQSPAILSASPGEKVTMTCRASSSVSYIHWFQQKPGSSPKPWIYATSNLASGVPVRFSGSGSGTSYSLTISRVEAEDAATYYCQQWTSNPPTFGGGTKLEIKRTVAAPSVFIFPPSDEQLKSGTASVVCLLNNFYPREAKVQWKVDNALQSGNSQESVTEQDSKDSTYSLSSTLTLSKADYEKHKVYACEVTHQGLSSPVTKSFNRGEC
notes: copies: 2 + 2
B4: anti-CD20 human IgG1 L234T/L235M/G236R (antibody)
heavy: QVQLQQPGAELVKPGASVKMSCKASGYTFTSYNMHWVKQTPGRGLEWIGAIYPGNGDTSYNQKFKGKATLTADKSSSTAYMQLSSLTSEDSAVYYCARSTYYGGDWYFNVWGAGTTVTVSSASTKGPSVFPLAPSSKSTSGGTAALGCLVKDYFPEPVTVSWNSGALTSGVHTFPAVLQSSGLYSLSSVVTVPSSSLGTQTYICNVNHKPSNTKVDKKVEPKSCDKTHTCPPCPAPETMRGPSVFLFPPKPKDTLMISRTPEVTCVVVDVSHEDPEVKFNWYVDGVEVHNAKTKPREEQYNSTYRVVSVLTVLHQDWLNGKEYKCKVSNKALPAPIEKTISKAKGQPREPQVYTLPPSRDELTKNQVSLTCLVKGFYPSDIAVEWESNGQPENNYKTTPPVLDSDGSFFLYSKLTVDKSRWQQGNVFSCSVMHEALHNHYTQKSLSLSPGK
light: QIVLSQSPAILSASPGEKVTMTCRASSSVSYIHWFQQKPGSSPKPWIYATSNLASGVPVRFSGSGSGTSYSLTISRVEAEDAATYYCQQWTSNPPTFGGGTKLEIKRTVAAPSVFIFPPSDEQLKSGTASVVCLLNNFYPREAKVQWKVDNALQSGNSQESVTEQDSKDSTYSLSSTLTLSKADYEKHKVYACEVTHQGLSSPVTKSFNRGEC
notes: also called 1-160; copies: 2 + 2
B5: anti-CD20 human IgG1 L234T/L235N/G236R (antibody)
heavy: QVQLQQPGAELVKPGASVKMSCKASGYTFTSYNMHWVKQTPGRGLEWIGAIYPGNGDTSYNQKFKGKATLTADKSSSTAYMQLSSLTSEDSAVYYCARSTYYGGDWYFNVWGAGTTVTVSSASTKGPSVFPLAPSSKSTSGGTAALGCLVKDYFPEPVTVSWNSGALTSGVHTFPAVLQSSGLYSLSSVVTVPSSSLGTQTYICNVNHKPSNTKVDKKVEPKSCDKTHTCPPCPAPETNRGPSVFLFPPKPKDTLMISRTPEVTCVVVDVSHEDPEVKFNWYVDGVEVHNAKTKPREEQYNSTYRVVSVLTVLHQDWLNGKEYKCKVSNKALPAPIEKTISKAKGQPREPQVYTLPPSRDELTKNQVSLTCLVKGFYPSDIAVEWESNGQPENNYKTTPPVLDSDGSFFLYSKLTVDKSRWQQGNVFSCSVMHEALHNHYTQKSLSLSPGK
light: QIVLSQSPAILSASPGEKVTMTCRASSSVSYIHWFQQKPGSSPKPWIYATSNLASGVPVRFSGSGSGTSYSLTISRVEAEDAATYYCQQWTSNPPTFGGGTKLEIKRTVAAPSVFIFPPSDEQLKSGTASVVCLLNNFYPREAKVQWKVDNALQSGNSQESVTEQDSKDSTYSLSSTLTLSKADYEKHKVYACEVTHQGLSSPVTKSFNRGEC
notes: copies: 2 + 2
B6: anti-CD20 human IgG1 L234T/L235R/G236R (antibody)
heavy: QVQLQQPGAELVKPGASVKMSCKASGYTFTSYNMHWVKQTPGRGLEWIGAIYPGNGDTSYNQKFKGKATLTADKSSSTAYMQLSSLTSEDSAVYYCARSTYYGGDWYFNVWGAGTTVTVSSASTKGPSVFPLAPSSKSTSGGTAALGCLVKDYFPEPVTVSWNSGALTSGVHTFPAVLQSSGLYSLSSVVTVPSSSLGTQTYICNVNHKPSNTKVDKKVEPKSCDKTHTCPPCPAPETRRGPSVFLFPPKPKDTLMISRTPEVTCVVVDVSHEDPEVKFNWYVDGVEVHNAKTKPREEQYNSTYRVVSVLTVLHQDWLNGKEYKCKVSNKALPAPIEKTISKAKGQPREPQVYTLPPSRDELTKNQVSLTCLVKGFYPSDIAVEWESNGQPENNYKTTPPVLDSDGSFFLYSKLTVDKSRWQQGNVFSCSVMHEALHNHYTQKSLSLSPGK
light: QIVLSQSPAILSASPGEKVTMTCRASSSVSYIHWFQQKPGSSPKPWIYATSNLASGVPVRFSGSGSGTSYSLTISRVEAEDAATYYCQQWTSNPPTFGGGTKLEIKRTVAAPSVFIFPPSDEQLKSGTASVVCLLNNFYPREAKVQWKVDNALQSGNSQESVTEQDSKDSTYSLSSTLTLSKADYEKHKVYACEVTHQGLSSPVTKSFNRGEC
notes: also called 2-61; copies: 2 + 2
B7: anti-CD20 human IgG1 L234A/L235A (LALA) (antibody)
heavy: not shown
light: QIVLSQSPAILSASPGEKVTMTCRASSSVSYIHWFQQKPGSSPKPWIYATSNLASGVPVRFSGSGSGTSYSLTISRVEAEDAATYYCQQWTSNPPTFGGGTKLEIKRTVAAPSVFIFPPSDEQLKSGTASVVCLLNNFYPREAKVQWKVDNALQSGNSQESVTEQDSKDSTYSLSSTLTLSKADYEKHKVYACEVTHQGLSSPVTKSFNRGEC
notes: also called 10.16; copies: 2 + 2
B8: anti-CD20 human IgG1 L234D/L235K/G236R (antibody)
heavy: QVQLQQPGAELVKPGASVKMSCKASGYTFTSYNMHWVKQTPGRGLEWIGAIYPGNGDTSYNQKFKGKATLTADKSSSTAYMQLSSLTSEDSAVYYCARSTYYGGDWYFNVWGAGTTVTVSSASTKGPSVFPLAPSSKSTSGGTAALGCLVKDYFPEPVTVSWNSGALTSGVHTFPAVLQSSGLYSLSSVVTVPSSSLGTQTYICNVNHKPSNTKVDKKVEPKSCDKTHTCPPCPAPEDKRGPSVFLFPPKPKDTLMISRTPEVTCVVVDVSHEDPEVKFNWYVDGVEVHNAKTKPREEQYNSTYRVVSVLTVLHQDWLNGKEYKCKVSNKALPAPIEKTISKAKGQPREPQVYTLPPSRDELTKNQVSLTCLVKGFYPSDIAVEWESNGQPENNYKTTPPVLDSDGSFFLYSKLTVDKSRWQQGNVFSCSVMHEALHNHYTQKSLSLSPGK
light: QIVLSQSPAILSASPGEKVTMTCRASSSVSYIHWFQQKPGSSPKPWIYATSNLASGVPVRFSGSGSGTSYSLTISRVEAEDAATYYCQQWTSNPPTFGGGTKLEIKRTVAAPSVFIFPPSDEQLKSGTASVVCLLNNFYPREAKVQWKVDNALQSGNSQESVTEQDSKDSTYSLSSTLTLSKADYEKHKVYACEVTHQGLSSPVTKSFNRGEC
notes: also called 1-23; 2-7; copies: 2 + 2
B9: anti-CD20 human IgG1 L234K/L235R/G236R (antibody)
heavy: QVQLQQPGAELVKPGASVKMSCKASGYTFTSYNMHWVKQTPGRGLEWIGAIYPGNGDTSYNQKFKGKATLTADKSSSTAYMQLSSLTSEDSAVYYCARSTYYGGDWYFNVWGAGTTVTVSSASTKGPSVFPLAPSSKSTSGGTAALGCLVKDYFPEPVTVSWNSGALTSGVHTFPAVLQSSGLYSLSSVVTVPSSSLGTQTYICNVNHKPSNTKVDKKVEPKSCDKTHTCPPCPAPEKRRGPSVFLFPPKPKDTLMISRTPEVTCVVVDVSHEDPEVKFNWYVDGVEVHNAKTKPREEQYNSTYRVVSVLTVLHQDWLNGKEYKCKVSNKALPAPIEKTISKAKGQPREPQVYTLPPSRDELTKNQVSLTCLVKGFYPSDIAVEWESNGQPENNYKTTPPVLDSDGSFFLYSKLTVDKSRWQQGNVFSCSVMHEALHNHYTQKSLSLSPGK
light: QIVLSQSPAILSASPGEKVTMTCRASSSVSYIHWFQQKPGSSPKPWIYATSNLASGVPVRFSGSGSGTSYSLTISRVEAEDAATYYCQQWTSNPPTFGGGTKLEIKRTVAAPSVFIFPPSDEQLKSGTASVVCLLNNFYPREAKVQWKVDNALQSGNSQESVTEQDSKDSTYSLSSTLTLSKADYEKHKVYACEVTHQGLSSPVTKSFNRGEC
notes: also called 1-88; 2-23; copies: 2 + 2
B10: anti-CD20 human IgG1 L234K/L235S/G236R (antibody)
heavy: QVQLQQPGAELVKPGASVKMSCKASGYTFTSYNMHWVKQTPGRGLEWIGAIYPGNGDTSYNQKFKGKATLTADKSSSTAYMQLSSLTSEDSAVYYCARSTYYGGDWYFNVWGAGTTVTVSSASTKGPSVFPLAPSSKSTSGGTAALGCLVKDYFPEPVTVSWNSGALTSGVHTFPAVLQSSGLYSLSSVVTVPSSSLGTQTYICNVNHKPSNTKVDKKVEPKSCDKTHTCPPCPAPEKSRGPSVFLFPPKPKDTLMISRTPEVTCVVVDVSHEDPEVKFNWYVDGVEVHNAKTKPREEQYNSTYRVVSVLTVLHQDWLNGKEYKCKVSNKALPAPIEKTISKAKGQPREPQVYTLPPSRDELTKNQVSLTCLVKGFYPSDIAVEWESNGQPENNYKTTPPVLDSDGSFFLYSKLTVDKSRWQQGNVFSCSVMHEALHNHYTQKSLSLSPGK
light: QIVLSQSPAILSASPGEKVTMTCRASSSVSYIHWFQQKPGSSPKPWIYATSNLASGVPVRFSGSGSGTSYSLTISRVEAEDAATYYCQQWTSNPPTFGGGTKLEIKRTVAAPSVFIFPPSDEQLKSGTASVVCLLNNFYPREAKVQWKVDNALQSGNSQESVTEQDSKDSTYSLSSTLTLSKADYEKHKVYACEVTHQGLSSPVTKSFNRGEC
notes: also called 1-89; 2-24; copies: 2 + 2

target: T1, Histidine-tagged recombinant human FcγRI (CD64) (human, UniProt P12314 16-288); experiment: SPR, culture supernatant, captured His-FcγRI;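 further: biacore T200 SPR at 25 °C, anti-His capture, supernatants of HEK293 cells expressing IgG1 Fc variants injected 1 min, reference-subtracted response read 55 s after injection start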
T1 construct: bought; also called Sino Biological Cat. No. 12056-H08H

Going from B1 to B2, the Mean binding response rises from 11.8 RU to 24 RU.

Going from B3 to B4, the Mean binding response rises from 26.9 RU to 31.6 RU.

First: B5
Second: B6
The Mean binding response of the first is higher: 22.4 RU for the first, 13.6 RU for the second.

Compared with B7, B8 is lower in Mean binding response: 65 RU for the first, 20.9 RU for the second.

Going from B9 to B10, the Mean binding response rises from 13.9 RU to 16.1 RU.
